Measurements: the nanobody polyreactivity screen of Harvey et al. (2022)

Assay: yeast display, Sf9 membrane polyspecificity reagent, FACS + sequencing; frameworks hold sequencing errors
Procedure, shortened: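 A nanobody's polyreactivity label depends on the gate it was sorted from. Yeast display cells were stained with 10% biotinylated, detergent-solubilized Sf9 membrane reagent for 1 hour at 4 °C, enriched on streptavidin microbeads and sorted by FACS. The low and high (top ~1%) gates were set on anti-HA fluorescence for expression and streptavidin fluorescence for reagent binding.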

| Sequence | polyreactivity (PSR sort gate) |
| --- | --- |
| QVQLVESGGGLVQAGGSLRLSCAASGIIFGRYTMGWYRQAPGKERELVAAITSSGITYYADSVKGRFTISRDNAKNTVYLQMNSLKPEDSAVYYCNADYSIPGYYWPYDYWGQGTQVTVSS | low polyreactivity |
| QVQLVESGGGLVQAGGSLRLSCAASGIIFGRYTMGWYRQAPGKERELVAAITSSGITYYADSVKGRFTISRDNAKNTVYLQMNSLKPEDTAVYYCAAEYNWYDYWGQGTQVTVSS | low polyreactivity |
| QVQLVESGGGLVQAGGSLRLSCAASGIIFGSYAMGWYRQAPGKEREFVADISKGDSTYYADSVKGRFTISRDNAKNTVYLQMNSLKPEDTAVYYCAVDSWRRALWYYGRYGYWGQGTQVTVSS | low polyreactivity |
| QVQLVESGGGLVQAGGSLRLSCAASGIIFGTNAMGWYRQAPGKERELVAGITSSGDSTYYADSVKGRFTISRDNAKNTVYLQMNSLKPEDTAVYYCAAYSGVGFLWFDYWGQGTQVTVSS | low polyreactivity |
| QVQLVESGGGLVQAGGSLRLSCAASGIIFGTYAMGWYRQAPGKERDLVAAISSSGGSTYYADSVKGRFTISRDNAKNTVYLQMNSLKPEDTAVYYCAADGPSNHDYHWGQGTQVTVSS | high polyreactivity |
| QVQLVESGGGLVQAGGSLRLSCAASGIIFGTYAMGWYRQAPGKERELVAAINWSGGSTYYADSVKGRFTISRDNAKNTVYLQMNSLKPEDTAVYYCAADGNEYDYWGQGTQVSVSS | low polyreactivity |
| QVQLVESGGGLVQAGGSLRLSCAASGIIFGTYAMGWYRQAPGKERELVASISSRGGSTYYADSVKGRFTISRDNAKNTVYLQMNSLKPEDTAVYYCAKRPSYAYSRYRKGHDYWGQGTQVSVSS | high polyreactivity |
| QVQLVESGGGLVQAGGSLRLSCAASGIIFGVYAMGWYRQAPGKERELVAAIDGNGSSTYYADSVKGRFTISRDNAKNTVYLQMNSLKPEDTAVYYCAARPDYYLWHGYYTRRHYYWGQGTQVTVSA | low polyreactivity |
| QVQLVESGGGLVQAGGSLRLSCAASGIIFGWYAMGWYRPAPGKERELVAAISSGGRTNYADSVKGRFTISRDNAKNTVYLQMNSLKPEDTAVYYCAARLWENTGYYYWGQGTQVTVSS | high polyreactivity |
| QVQLVESGGGLVQAGGSLRLSCAASGIIFGYYAMGWYRQAPGKERELVAAISKRGGSTNYADSVKGRFTISRDNAKNTVYLQMNSLKPEDTAVYYCAARYPQGGTGKATYVRSRSGYWGQGTQVTVSS | high polyreactivity |
| QVQLVESGGGLVQAGGSLRLSCAASGIIFGYYAMGWYRQAPGKERELVAAISRGGNTNYADSVKGRFTISRDNAKNTVYLQMNSLKPEDTAVYYCAADFWSRIKYFYAVDVDYWGQGTQVTVSS | low polyreactivity |
| QVQLVESGGGLVQAGGSLRLSCAASGIIFGYYAMGWYRQAPGKERELVAAISRRGGSTYYADSVKGRFTISRDNAKNTVYLQMNSLKPEDTAVYYCNKRRAAGGFPYDYWGQGTQVTVSS | high polyreactivity |
| QVQLVESGGGLVQAGGSLRLSCAASGIIFHWYAMGWYRQAPGKERELVAAITQSGGSTSYADSVKGRFTISRDNAKNTVYLQMNSLKPEDTAVYYCAKDYAYTLWENYYAFNYWGQGTQVTVSS | low polyreactivity |
| QVQLVESGGGLVQAGGSLRLSCAASGIIFIAYAMGWYRQAPGKERELVADISIGGSTNYADSVKGRFTISRDNAKNTVYLQMNSLKPEDTAVYYCNAGGGFYGSTVEHDYWGQGTQVTVSS | low polyreactivity |
| QVQLVESGGGLVQAGGSLRLSCAASGIIFIFYDMGWYRQAPGTERELVAAITNGVDSTYYADSVKGRFTISRDNAKNTVYLQMNSLKPEDTAVYYCNADTVVEWYSPSREYDYWGQGTQVTVSS | low polyreactivity |
| QVQLVESGGGLVQAGGSLRLSCAASGIIFITYAMGWYRQAPGKERELVAAITSDGNTNYADSVKGRFTISRDNAKNTVYLQMNSLKPEDTAVYYCNAETQYGVLSWHSTRHDYWGQGTQVTVSS | low polyreactivity |
| QVQLVESGGGLVQAGGSLRLSCAASGIIFITYAMGWYRQAPGKERELVAVISKGGGRTYYADSVKGRFTISRDNAKNTVYLQMNSLKPEDTAVYYCAARSSSNRYVHMDYWGQGTQVTVSS | high polyreactivity |
| QVQLVESGGGLVQAGGSLRLSCAASGIIFKDYAMGWYRQAPGKERELVAAISWNGDRTYYADSVKGRFTISRDNAKNTVYLQMNRLKPEDTAVYYCAARFGSCFNYWGQGTQVTVSS | high polyreactivity |
| QVQLVESGGGLVQAGGSLRLSCAASGIIFKGYPMGWYRPAPGKERELVAGISSGGTTYYADSVKGRFTISRDNAKITVYLQMNSLKPEDTAVYYCGAGPRRSYRFDYWGQGTQVTVSS | high polyreactivity |
| QVQLVESGGGLVQAGGSLRLSCAASGIIFKNYAMGWYRQAPGKERELVAAISKRGASTYYADSVKGRFTISRDNAKNTVYLQMNSLKPEDTAVYYCAAYRQGSAYDYWGQGTQVTVSS | high polyreactivity |
| QVQLVESGGGLVQAGGSLRLSCAASGIIFKNYAMGWYRQAPGKERELVAAISWRGGRTYYADSVKGRFTISRDNAKNTVYLQMNSLKPEDTAVYYCAKELYVSYRGGPWVDYWGQGTQVTVSS | high polyreactivity |
| QVQLVESGGGLVQAGGSLRLSCAASGIIFKSYAVGWYRQAPGKERELVAAISSGGSTNYADSVKGRFTISRDNAKNTVYLQMNSLKPEDTAVYYCAKRYTATEWHGERDYWGQGTQVTVSS | high polyreactivity |
| QVQLVESGGGLVQAGGSLRLSCAASGIIFKTYAKGWYRPAPAKERELVAAISRRGGSTYYADSVNGRFTISRDNAKNTVYLQMNSLKPEDTAVYYCAAEYGYVIAYTTRAFYYWGHGTQVTVSS | high polyreactivity |
| QVQLVESGGGLVQAGGSLRLSCAASGIIFKYYAMGWYRQAPGKERELVAAITGNGGSTYYADSVKGRFTISRDNAKNTVYLQMNSLKPEDTAVYYCATRWFAVHMYWGQGTQVTVSS | high polyreactivity |
| QVQLVESGGGLVQAGGSLRLSCAASGIIFLDNAMGWYRQAPGKERELVADITSSGGSTYYADSVKGRFTISRDNAKNTVSLQMNSLKPEDTAVYYCAATRPSYNDAESDYWGQGTQVTVSS | low polyreactivity |
| QVQLVESGGGLVQAGGSLRLSCAASGIIFLDYVMGWYRQAPGKERELVAAISRSGGTTYYADSVKGRFTISRDNAKNTVYLQMNSLKPEDTAVYYCAVRSYRDTRFYYWGQGTQVTVSS | high polyreactivity |
| QVQLVESGGGLVQAGGSLRLSCAASGIIFLFYAMGWYSQAPGKERELVGSITWSGGSTYYADSVKGRFTISRDTAKNTVYLQMNRLKPEDTAVYYCAASVKIISYLGQSEFLGGELDYWGQGTQVTVSS | low polyreactivity |
| QVQLVESGGGLVQAGGSLRLSCAASGIIFLVYAMGWSRQAPGKEGQLVAGISGSATSTNYADSVKGRFTISRDNAKNTVYLEMNSLKPEDTAVYYCAASYYGYYVPDNSKYGYWGQGTQVTVSS | low polyreactivity |
| QVQLVESGGGLVQAGGSLRLSCAASGIIFLVYAMGWYRQAPGKERELVAGISGSATSTNYADSVKGRFTISRDNAKNTVYLQMNSLKPEETAVYYCAASYYGYYVPDNSKYGYWGQGTQVTVSS | low polyreactivity |
| QVQLVESGGGLVQAGGSLRLSCAASGIIFLVYARGWYRKAPGKVRELVAGISGSATSTNYADSVKGRFTISRDNAKNTVFLQMNSLKPEDTAVYYCAPEPDHVADSHSGYDYWGQGTQVTVSS | low polyreactivity |
